Assay results: paper doi:10.1101/2022.09.21.508839
Several values for one entry are separate records, joined by “and”; a condition that tells them apart may be missing. Equal entries are not always repeated.

Molecular target: F-type ATP synthase from bovine heart mitochondria (Bos taurus (bovine))
Experiment: native gel or EMSA

stoichiometry N: 2 and 4
Substance: F-type ATP synthase from bovine heart mitochondria (complex)
